Source: patent US20230374148A1, “BINDING MOLECULES THAT MULTIMERISE CD45” (UCB BIOPHARMA SRL, priority 2020, published 2023)

Tests used:
Human PBMC = assay: Apoptosis of PBMCs: reduction of PBMC cell subsets; format: cell-based; conditions: 24 hrs; for Bottom level of % subset cell reduction / Top level of % subset cell reduction: donor UCB Cone-802
Protocol: Human PBMC derived from blood leukocyte platelet-apheresis cones (NHSBT Oxford) were banked as frozen aliquots. Prior to an assay being performed, 2 vials of frozen cells, each containing 5×10^7 cells in 1 ml, were thawed in a 37° C. water bath and then added to 50 ml complete media (RPMI 1640+2 mM GlutaMAX+1% Pen/Strep, all previous supplied by Invitrogen, +10% Fetal Bovine Serum (FBS), Sigma Aldrich). Cells were spun (500 g, 5 min, at RT) and re-suspended in 30 ml complete media to wash and spun again. Cells were resuspended in 10 ml complete media and then counted using a ChemoMetec NucleoCounter NC-3000. 10^5 cells per well in 100 μl were then added to each well of a Corning Costar 96-well, cell culture treated, U-shaped-bottom microplate (cat no. 07-200-95). The plate was rested in a 37° C., 5% CO2 incubator for 2 hrs. PBMCs from two donors, UCB-Cones 801 and 802 were used in this assay.
Similarly, a 1500 nM stock of 4133-6294 BYbe in complete media was prepared. The microplate was incubated for 1 hr at 37° C., 5% CO2. Following the incubation, Fab-KD-Fab and BYbe reagents were then serially diluted in complete media 1 in 5, nine times to produce to form a 10-point dose curve.
Following the incubation, the plate was spun at 500 g, 5 min, RT, the buffer was aspirated with a BioTek ELx405 microplate washer, and the cells were re-suspended in FACS buffer (PBS+1% bovine serum albumin (BSA)+0.1% NaN3+2 mM EDTA, Sigma Aldrich) to wash and then re-spun and buffer was aspirated to leave the cells in 20 μl residual media. 20 μl of cell-specific marker antibody cocktail solution was added to the wells and incubated for 1 hr at 4° C. The antibody cocktail is detailed in Table 4 below.
(§1) Cells were analysed live using the Intellicyt iQue Screener PLUS. Live cell counts were extracted as metrics and graphical representations generated using Graphpad Prism version 8.1 (Graphpad). Asymmetric (five parameter) curve fitting was applied to derive maximal % cell reduction and EC50 values.

Human whole blood = assay: Apoptosis of lymphocytes in whole blood; format: cell-based; conditions: 5 hrs
Protocol: Human whole blood (Lithium heparin tubes) was taken from two donors (HTA #051119-01 & #051119-02) at UCB Pharma Slough, UK according to approved ethical sample collection protocol.
In a Greiner 96-well non-binding microplate, Fab-X and Fab-Y combinations 6294-X/4133-Y and NegCtrl-X/4133-Y, were added to PBS to give a Fab-KD-Fab concentration of 2750 nM. Similarly, a 2750 nM stock of 4133-6294 BYbe in PBS was prepared. The microplate was incubated for 1 hr at 37° C., 5% CO2. Following the incubation, Fab-KD-Fab and BYbe reagents were then serially diluted in PBS 1 in 5, nine times to produce to form a 10-point dose curve.
5 μl of each Fab-KD-Fab or BYbe dilution was added to Nunc™ 96-Well Polypropylene DeepWell™ plates (ThermoFisher). Then 50 μl of blood was added to each well, the plate gently mixed and sealed with a plate seal that allows gas exchange. These cells were then incubated for 5 hrs at 37° C., 5% CO2. Running the assay for a short time period avoids the need to add an anti-coagulant.
Following the incubation, 950 μl of BD Phosflow BD Lyse/Fix (cat no. BD558049, FisherScientific) was added to each well and the plate incubated at 37° C., 5% CO2 for 10 minutes. The plate was then spun at 500 g for 8 min, at 4° C. The buffer was aspirated and 1 ml of FACS buffer (PBS+1% bovine serum albumin (BSA)+0.1% NaN3+2 mM EDTA, Sigma Aldrich) added to wash cells using an Integra Viaflo 96 channel pipette. The plate was spun at 500 g for 8 min, at 4° C. As before, the buffer was aspirated and 1 ml of FACS buffer added to wash cells. This was followed by a slower spin at 250 g for 10 min, at 4° C. Again, buffer was aspirated and 1 ml of FACS buffer added to wash cells.
The plate was re-spun at 500 g for 8 min, at 4° C. Buffer was aspirated leaving the cells in a minimal residual volume for cell-specific antibody staining. 20 μl of cell-specific antibody cocktail (shown in Table 7 below) was added to the wells and the plate incubated for 1 hr at 4° C.
as §1, with “Following the incubation with the antibody cocktail, cells were washed twice as outlined above and buffer aspirated to leave the cells in 20 μl residual buffer. 20 μl of FACS buffer was then added to samples to dilute the cells. Cells” for “Cells”

B1: 4133-6294 BYbe: anti-CD45 BYbe (Fab-scFv): 4133 Fab HC-G4S linker-6294 scFv heavy chain paired with 4133 light chain (antibody)
heavy: QEQLVESGGGLVQPEGSLTLTCTASGFSFSGNYYMCWVRQAPGKGLEWIGCLYTGSSGSTYYASWAKGRFTISKTSSTTVTLQMTSLTAADTATYFCARDLGYEIDGYGGLWGQGTLVTVSSGQPKAPSVFPLAPCCGDTPSSTVTLGCLVKGYLPEPVTVTWNSGTLTNGVRTFPSVRQSSGLYSLSSVVSVTSSSQPVTCNVAHPATNTKVDKTVAPSTCSKPGGGGSGGGGSEVQLVESGAELARPGASVKMSCKASGYTFTSYTMHWVKQRPGQCLEWIGYINPSSGYTEYNQKFKDKTTLTADKSSSTAYLQLSSLTSEDSAVYYCARVGDGFYPSWLAYWGQGTLVTVSSGGGGSGGGGSGGGGSGGGGSDIQMTQSPKFLLVSAGDRVTITCKASQSVRNDVAWYQQKPGQSPKLLIFYASKRYTGVPDRFTGSGYGTDFTFTISTVQAEDLAVYFCQQDYSSPTTFGCGTKLEIK
light: AQVLTQTPSPVSAVVGGTVSISCQASQSVYNNNNLSWYQQKPGQPPKLLIYDASKLASGVPSRFKGSGSGTQFTLTISGVQCDDAATYYCLGGYYSSGWYFAFGGGTKVVVKRTPVAPTVLIFPPAADQVATGTVTIVCVANKYFPDVTVTWEVDGTTQTTGIENSKTPQNSADCTYNLSSTLTLTSTQYNSHKEYTCKVTQGTTSVVQSFNRGDC
Question: Which results are given for B1?
Answer: almost maximal reductions in B cells (Human PBMC; B cells in PBMC, stated for both reagents): 87%; Bottom level of % subset cell reduction (Human PBMC; B cells): 18.74%; Top level of % subset cell reduction (Human PBMC; B cells): 87.09%; Bottom level of % subset cell reduction (Human PBMC; CD4+ Memory): 24%; Top level of % subset cell reduction (Human PBMC; CD4+ Memory): 99.76%; Bottom level of % subset cell reduction (Human PBMC; CD4+ Naive): 18.53%; Top level of % subset cell reduction (Human PBMC; CD4+ Naive): 99.04%; Bottom level of % subset cell reduction (Human PBMC; CD4+): 20.22%; Top level of % subset cell reduction (Human PBMC; CD4+): 99.2%; Bottom level of % subset cell reduction (Human PBMC; CD8+): 0.543%; Top level of % subset cell reduction (Human PBMC; CD8+): 98.36%; Max % reduction (Human whole blood; CD4+, Donor 1, whole blood): 50%; Max % reduction (Human whole blood; CD4+, Donor 2, whole blood): 54%; Max % reduction (Human whole blood; Total lymphocytes, Donor 1, whole blood): 34%; Max % reduction (Human whole blood; Total lymphocytes, Donor 2, whole blood): 44%
